# Measured values as given in patent US20110104194A1 (NEW YORK UNIVERSITY, published 2011).
# T1: elastin (human lung) (human, UniProt P15502 27-786)
# T1 sequence: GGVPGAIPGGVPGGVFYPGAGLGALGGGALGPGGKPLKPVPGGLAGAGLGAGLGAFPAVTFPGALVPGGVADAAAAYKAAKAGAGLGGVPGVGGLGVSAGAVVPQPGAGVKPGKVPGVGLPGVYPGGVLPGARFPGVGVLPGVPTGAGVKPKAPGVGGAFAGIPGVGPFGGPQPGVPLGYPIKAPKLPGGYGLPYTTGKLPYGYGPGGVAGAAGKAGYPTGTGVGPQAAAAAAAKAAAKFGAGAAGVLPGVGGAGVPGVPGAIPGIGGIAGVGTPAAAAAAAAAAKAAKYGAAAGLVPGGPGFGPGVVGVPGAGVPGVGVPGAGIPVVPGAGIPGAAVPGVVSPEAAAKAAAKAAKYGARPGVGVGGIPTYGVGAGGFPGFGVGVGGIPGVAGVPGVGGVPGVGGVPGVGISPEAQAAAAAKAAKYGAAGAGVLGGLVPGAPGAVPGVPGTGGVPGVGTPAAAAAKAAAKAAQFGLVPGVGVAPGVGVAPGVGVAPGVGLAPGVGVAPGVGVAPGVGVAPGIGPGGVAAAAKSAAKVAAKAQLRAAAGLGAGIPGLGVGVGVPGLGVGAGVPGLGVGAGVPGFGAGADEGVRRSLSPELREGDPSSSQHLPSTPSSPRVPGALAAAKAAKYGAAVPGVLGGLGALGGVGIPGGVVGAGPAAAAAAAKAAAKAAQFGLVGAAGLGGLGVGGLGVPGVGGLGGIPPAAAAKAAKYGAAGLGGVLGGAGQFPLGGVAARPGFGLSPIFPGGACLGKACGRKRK
# T2: fibrinogen (human plasma) (human, UniProt P02671 20-629; P02675 31-491; P02679 27-437)
# T2 sequence 1: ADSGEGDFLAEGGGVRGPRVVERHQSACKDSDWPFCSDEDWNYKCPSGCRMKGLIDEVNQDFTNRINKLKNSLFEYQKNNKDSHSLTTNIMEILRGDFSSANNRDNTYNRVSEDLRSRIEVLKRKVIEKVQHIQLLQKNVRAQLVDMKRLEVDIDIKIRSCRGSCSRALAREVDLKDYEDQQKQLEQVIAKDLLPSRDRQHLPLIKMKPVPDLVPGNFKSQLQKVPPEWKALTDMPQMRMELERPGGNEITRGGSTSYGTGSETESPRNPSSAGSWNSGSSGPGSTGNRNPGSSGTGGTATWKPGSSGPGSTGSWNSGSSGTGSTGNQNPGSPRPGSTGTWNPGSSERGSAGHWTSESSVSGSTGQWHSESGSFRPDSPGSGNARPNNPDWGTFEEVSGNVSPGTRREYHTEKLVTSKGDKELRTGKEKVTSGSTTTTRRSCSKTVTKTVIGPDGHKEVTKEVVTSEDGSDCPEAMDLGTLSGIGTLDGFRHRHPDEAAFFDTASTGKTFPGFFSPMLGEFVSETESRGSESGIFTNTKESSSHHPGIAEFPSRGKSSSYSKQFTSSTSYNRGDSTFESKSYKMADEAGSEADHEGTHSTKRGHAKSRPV
# T2 sequence 2: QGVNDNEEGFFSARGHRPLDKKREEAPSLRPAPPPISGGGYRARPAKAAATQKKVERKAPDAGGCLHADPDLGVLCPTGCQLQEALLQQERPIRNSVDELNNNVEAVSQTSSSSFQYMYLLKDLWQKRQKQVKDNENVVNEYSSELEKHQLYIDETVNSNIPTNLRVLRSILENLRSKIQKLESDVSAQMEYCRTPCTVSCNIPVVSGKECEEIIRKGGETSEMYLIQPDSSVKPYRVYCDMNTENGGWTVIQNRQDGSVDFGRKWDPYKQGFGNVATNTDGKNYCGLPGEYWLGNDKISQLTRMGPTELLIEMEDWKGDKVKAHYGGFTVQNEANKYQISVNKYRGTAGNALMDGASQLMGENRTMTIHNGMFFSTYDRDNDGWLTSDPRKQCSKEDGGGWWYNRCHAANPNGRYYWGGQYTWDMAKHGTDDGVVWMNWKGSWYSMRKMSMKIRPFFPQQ
# T2 sequence 3: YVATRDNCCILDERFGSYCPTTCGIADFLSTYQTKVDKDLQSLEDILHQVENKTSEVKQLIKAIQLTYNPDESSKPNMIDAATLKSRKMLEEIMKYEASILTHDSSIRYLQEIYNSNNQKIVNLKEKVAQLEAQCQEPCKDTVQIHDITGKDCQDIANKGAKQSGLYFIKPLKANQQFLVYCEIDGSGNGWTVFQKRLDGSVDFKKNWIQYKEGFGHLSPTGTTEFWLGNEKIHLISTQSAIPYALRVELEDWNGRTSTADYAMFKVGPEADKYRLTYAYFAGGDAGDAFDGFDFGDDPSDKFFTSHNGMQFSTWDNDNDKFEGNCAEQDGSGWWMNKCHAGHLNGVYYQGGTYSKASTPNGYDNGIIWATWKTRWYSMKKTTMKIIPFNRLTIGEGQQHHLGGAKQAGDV
# T3: collagen III (human placenta) (human, UniProt P02461 154-1221)
# T3 construct: Chemicon; also called Col III
# T3 sequence: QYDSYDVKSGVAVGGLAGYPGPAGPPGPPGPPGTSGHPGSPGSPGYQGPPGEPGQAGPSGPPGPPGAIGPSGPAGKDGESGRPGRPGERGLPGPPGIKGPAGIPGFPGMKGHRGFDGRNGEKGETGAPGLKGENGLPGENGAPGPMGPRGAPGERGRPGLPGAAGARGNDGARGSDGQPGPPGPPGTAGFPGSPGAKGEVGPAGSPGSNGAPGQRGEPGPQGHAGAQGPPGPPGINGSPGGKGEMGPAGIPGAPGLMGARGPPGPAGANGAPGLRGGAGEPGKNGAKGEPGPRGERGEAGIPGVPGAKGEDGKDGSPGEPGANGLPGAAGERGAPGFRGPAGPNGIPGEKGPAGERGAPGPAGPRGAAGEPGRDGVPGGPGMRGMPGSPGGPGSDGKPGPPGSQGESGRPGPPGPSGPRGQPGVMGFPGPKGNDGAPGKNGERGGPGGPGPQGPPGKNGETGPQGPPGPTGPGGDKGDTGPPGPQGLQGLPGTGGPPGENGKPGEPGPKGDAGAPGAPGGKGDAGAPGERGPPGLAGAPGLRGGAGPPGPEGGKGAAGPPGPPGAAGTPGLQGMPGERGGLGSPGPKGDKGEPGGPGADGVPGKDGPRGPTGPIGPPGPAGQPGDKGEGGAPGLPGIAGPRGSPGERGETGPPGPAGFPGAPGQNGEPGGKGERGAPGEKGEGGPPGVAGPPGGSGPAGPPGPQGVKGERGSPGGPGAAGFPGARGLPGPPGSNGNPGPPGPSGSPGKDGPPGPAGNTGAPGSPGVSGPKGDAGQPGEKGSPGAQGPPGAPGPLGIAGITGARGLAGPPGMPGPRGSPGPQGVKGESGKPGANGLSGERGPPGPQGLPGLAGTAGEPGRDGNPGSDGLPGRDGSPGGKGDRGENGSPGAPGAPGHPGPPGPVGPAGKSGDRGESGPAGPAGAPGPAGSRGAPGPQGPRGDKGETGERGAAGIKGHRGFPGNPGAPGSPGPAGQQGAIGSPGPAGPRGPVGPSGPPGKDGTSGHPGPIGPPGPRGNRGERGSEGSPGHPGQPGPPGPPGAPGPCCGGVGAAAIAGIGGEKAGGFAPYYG
# Legend:
# [1] = molecular target: vitronectin (human plasma) (human, UniProt P04004 20-478); test: western blot overlay of rPTRP with ECM protein; same result by ELISA
# elastin (human lung) = molecular target: T1, elastin (human lung); test: as above
# human collagen I = molecular target: T4, human collagen I (human, UniProt P02452 162-1218; P08123 80-1119); test: as above
# T4 construct: Chemicon; also called Col I
# [2] = molecular target: T5, collagen IV (human placenta) (human, UniProt P02462 28-1669; P08572 26-1712); test: as above
# T5 construct: Chemicon; also called Col IV
# [3] = molecular target: T2, fibrinogen (human plasma); test: as above
# [4] = molecular target: T6, collagen II (human cartilage) (human, UniProt P02458 182-1241); test: as above
# T6 construct: Chemicon; also called Col II
# [5] = molecular target: T3, collagen III (human placenta); test: as above
# [6] = molecular target: Thrombospondin (human platelet) (human, UniProt P07996 19-1170); test: western blot overlay: rPTRP on the blot, ECM protein 5 µg/ml, anti-ECM antibody
# Thrombospondin (human platelet), sequence (P07996 19-1170 limits assumed): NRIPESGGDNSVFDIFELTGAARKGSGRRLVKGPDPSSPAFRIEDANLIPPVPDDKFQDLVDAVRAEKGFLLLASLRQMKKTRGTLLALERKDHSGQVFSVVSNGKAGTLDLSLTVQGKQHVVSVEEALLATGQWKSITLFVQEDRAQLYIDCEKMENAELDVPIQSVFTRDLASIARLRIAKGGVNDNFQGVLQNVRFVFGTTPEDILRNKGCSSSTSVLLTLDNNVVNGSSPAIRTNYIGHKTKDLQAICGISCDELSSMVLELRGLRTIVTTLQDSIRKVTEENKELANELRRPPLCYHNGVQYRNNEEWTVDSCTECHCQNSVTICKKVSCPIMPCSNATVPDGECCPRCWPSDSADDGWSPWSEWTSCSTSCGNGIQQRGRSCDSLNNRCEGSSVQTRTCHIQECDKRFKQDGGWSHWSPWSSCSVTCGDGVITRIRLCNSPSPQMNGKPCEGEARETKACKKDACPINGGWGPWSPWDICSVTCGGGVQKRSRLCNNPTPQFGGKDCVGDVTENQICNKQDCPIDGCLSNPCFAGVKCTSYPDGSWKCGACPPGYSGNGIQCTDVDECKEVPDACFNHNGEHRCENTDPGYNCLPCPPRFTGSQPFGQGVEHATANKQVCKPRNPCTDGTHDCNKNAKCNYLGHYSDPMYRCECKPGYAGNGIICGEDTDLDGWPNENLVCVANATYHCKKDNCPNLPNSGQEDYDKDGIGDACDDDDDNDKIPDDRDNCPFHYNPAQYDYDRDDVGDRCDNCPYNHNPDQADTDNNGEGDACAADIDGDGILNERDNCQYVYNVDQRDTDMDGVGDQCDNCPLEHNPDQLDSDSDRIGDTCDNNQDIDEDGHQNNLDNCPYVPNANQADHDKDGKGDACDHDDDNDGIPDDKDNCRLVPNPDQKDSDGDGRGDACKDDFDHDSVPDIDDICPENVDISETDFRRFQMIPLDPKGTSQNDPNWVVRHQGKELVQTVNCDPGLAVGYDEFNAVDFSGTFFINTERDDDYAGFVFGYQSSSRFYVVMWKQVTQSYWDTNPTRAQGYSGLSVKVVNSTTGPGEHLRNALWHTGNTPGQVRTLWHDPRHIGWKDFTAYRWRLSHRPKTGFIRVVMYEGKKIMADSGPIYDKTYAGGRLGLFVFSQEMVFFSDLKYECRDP
# T4 sequence (P02452 162-1218, chain 1 of 2): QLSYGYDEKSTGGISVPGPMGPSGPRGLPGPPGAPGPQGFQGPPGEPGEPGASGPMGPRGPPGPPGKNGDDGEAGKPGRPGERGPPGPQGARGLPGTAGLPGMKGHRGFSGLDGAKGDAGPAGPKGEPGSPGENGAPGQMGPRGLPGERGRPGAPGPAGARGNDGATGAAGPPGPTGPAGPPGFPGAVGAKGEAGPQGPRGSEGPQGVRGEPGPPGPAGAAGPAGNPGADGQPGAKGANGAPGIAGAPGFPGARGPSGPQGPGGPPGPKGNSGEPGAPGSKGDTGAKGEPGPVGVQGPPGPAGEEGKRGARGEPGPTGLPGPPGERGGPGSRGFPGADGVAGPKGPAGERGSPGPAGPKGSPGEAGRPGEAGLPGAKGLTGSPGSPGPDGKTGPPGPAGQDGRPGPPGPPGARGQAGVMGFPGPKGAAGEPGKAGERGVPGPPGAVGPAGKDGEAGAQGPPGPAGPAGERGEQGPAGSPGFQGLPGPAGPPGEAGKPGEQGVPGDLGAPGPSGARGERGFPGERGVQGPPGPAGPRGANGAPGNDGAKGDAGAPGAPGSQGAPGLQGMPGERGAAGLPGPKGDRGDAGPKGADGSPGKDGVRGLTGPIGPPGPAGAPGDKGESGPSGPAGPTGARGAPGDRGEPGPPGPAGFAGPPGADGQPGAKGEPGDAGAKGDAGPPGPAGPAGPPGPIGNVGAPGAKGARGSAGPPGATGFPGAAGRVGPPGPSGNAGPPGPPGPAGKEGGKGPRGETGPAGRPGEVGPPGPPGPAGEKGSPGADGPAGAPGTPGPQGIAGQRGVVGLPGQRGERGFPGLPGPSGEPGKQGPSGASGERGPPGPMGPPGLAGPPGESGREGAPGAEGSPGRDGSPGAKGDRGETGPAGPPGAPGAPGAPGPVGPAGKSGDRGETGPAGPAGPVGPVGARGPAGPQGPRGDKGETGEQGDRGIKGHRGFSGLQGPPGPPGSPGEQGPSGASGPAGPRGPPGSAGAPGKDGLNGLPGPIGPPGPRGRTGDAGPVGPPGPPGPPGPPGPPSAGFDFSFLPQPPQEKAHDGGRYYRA
# T4 sequence (P08123 80-1119, chain 2 of 2): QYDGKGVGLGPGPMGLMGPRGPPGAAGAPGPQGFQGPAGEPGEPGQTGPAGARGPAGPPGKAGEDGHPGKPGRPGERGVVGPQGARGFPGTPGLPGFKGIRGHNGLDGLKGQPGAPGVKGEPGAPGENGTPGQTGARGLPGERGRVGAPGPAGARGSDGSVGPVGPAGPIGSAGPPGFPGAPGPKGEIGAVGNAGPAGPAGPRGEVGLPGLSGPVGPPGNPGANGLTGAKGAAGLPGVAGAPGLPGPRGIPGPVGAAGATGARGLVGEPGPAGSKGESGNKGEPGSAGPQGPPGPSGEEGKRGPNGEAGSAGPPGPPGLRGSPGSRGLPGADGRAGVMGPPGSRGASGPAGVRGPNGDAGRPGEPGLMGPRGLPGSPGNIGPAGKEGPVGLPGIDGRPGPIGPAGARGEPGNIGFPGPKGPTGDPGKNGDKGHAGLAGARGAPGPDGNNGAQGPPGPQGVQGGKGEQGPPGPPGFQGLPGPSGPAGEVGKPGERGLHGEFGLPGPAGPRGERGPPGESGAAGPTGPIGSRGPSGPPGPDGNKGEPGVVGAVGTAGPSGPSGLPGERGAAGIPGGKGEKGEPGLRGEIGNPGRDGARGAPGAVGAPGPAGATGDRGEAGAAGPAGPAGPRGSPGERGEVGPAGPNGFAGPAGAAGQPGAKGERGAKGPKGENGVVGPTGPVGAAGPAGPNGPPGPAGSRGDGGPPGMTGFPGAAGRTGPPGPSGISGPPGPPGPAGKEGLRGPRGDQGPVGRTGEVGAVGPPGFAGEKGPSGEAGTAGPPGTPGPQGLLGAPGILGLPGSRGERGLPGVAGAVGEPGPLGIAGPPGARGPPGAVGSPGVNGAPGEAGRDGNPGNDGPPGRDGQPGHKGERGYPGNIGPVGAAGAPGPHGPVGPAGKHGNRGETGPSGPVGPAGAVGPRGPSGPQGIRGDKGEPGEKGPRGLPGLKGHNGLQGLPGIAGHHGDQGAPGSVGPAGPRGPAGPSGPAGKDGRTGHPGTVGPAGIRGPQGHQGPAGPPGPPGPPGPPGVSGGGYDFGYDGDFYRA
# T6 sequence (P02458 182-1241 limits assumed): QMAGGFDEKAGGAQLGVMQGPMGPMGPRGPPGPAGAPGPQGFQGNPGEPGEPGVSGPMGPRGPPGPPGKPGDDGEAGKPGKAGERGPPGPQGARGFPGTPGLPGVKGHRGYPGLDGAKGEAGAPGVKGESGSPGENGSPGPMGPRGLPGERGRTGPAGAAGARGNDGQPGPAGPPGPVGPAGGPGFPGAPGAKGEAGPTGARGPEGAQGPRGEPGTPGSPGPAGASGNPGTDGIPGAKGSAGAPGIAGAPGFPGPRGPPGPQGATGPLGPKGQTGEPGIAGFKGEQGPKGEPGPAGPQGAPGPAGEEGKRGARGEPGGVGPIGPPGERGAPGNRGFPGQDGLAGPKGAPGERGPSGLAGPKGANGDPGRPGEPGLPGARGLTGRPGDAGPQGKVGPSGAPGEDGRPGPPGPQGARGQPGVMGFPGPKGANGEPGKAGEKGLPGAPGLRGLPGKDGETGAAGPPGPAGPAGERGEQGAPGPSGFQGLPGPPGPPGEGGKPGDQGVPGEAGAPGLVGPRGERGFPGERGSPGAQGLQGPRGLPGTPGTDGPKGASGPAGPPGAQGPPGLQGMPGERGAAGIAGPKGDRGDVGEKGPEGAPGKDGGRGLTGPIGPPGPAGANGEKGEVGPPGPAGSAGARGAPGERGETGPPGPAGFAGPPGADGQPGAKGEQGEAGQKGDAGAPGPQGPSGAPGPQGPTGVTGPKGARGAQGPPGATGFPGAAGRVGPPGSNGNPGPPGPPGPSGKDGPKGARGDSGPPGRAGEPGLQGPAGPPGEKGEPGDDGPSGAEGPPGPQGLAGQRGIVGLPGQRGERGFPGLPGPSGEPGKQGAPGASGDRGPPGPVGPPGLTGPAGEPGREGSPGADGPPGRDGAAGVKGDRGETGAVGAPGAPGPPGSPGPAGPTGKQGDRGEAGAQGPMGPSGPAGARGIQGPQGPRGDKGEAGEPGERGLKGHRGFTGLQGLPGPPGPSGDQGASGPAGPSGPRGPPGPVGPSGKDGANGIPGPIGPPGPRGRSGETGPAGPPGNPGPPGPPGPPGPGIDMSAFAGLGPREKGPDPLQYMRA
# vitronectin (human plasma), sequence (P04004 20-478 limits assumed): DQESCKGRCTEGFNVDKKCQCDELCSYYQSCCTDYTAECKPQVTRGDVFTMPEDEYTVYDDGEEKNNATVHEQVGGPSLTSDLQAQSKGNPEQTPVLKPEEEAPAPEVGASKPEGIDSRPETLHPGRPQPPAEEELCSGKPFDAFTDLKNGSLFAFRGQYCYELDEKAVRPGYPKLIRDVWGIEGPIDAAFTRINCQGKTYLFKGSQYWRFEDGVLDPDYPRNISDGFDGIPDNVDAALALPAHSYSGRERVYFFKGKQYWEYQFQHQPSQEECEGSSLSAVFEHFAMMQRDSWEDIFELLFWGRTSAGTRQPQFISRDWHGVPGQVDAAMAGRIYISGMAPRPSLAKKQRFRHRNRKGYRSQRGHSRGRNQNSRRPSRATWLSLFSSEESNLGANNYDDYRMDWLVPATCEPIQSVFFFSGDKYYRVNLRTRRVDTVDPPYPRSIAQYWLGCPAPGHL
binder,measurement,setting,value
"purified recombinant PTRP (rPTRP), GST tag cleaved (other, also called Proline-Threonine Repetitive Protein; Rv0538) MDVALGVAVTDRVARLALVDSAAPGTVIDQFVLDVAEHPVEVLTETVVGTDRSLAGENHRLVATRLCWPDQAKADELQHALQDSGVHDVAVISEAQAATALVGAAHAGSAVLLVGDETATLSVVGDPDAPPTMVAVAPVAGADATSTVDTLMARLGDQALAPGDVFLVGRSAEHTTVLADQLRAASTMRVQTPDDPTFALARGAAMAAGAATMAHPALVADATTSLPRAEAGQSGSEGEQLAYSQASDYELLPVDEYEEHDEYGAAADRSAPLSRRSLLIGNAVVAFAVIGFASLAVAVAVTIRPTAASKPVEGHQNAQPGKFMPLLPTQQQAPVPPPPPDDPTAGFQGGTIPAVQNVVPRPGTSPGVGGTPASPAPEAPAVPGVVPAPVPIPVPIIIPPFPGWQPGMPTIPTAPPTTPVTTSATTPPTTPPTTPVTTPPTTPPTTPVTTPPTTPPTTPVTTPPTTVAPTTVAPTTVAPTTVAPTTVAPATATPTTVAPQPTQQPTQQPTQQMPTQQQTVAPQTVAPAPQPPSGGRNGSGGGDLFGGF",binding result,[1],no binding (tested: 5 µg/ml)
same,binding result,elastin (human lung),no binding (tested: 5 µg/ml)
same,binding result,human collagen I,no binding (tested: 5 µg/ml)
same,binding result,[2],no binding (tested: 5 µg/ml)
same,binding result,[3],no binding (tested: 5 µg/ml)
same,binding result,[4],no binding (tested: 5 µg/ml)
same,binding result,[5],no binding (tested: 5 µg/ml)
same,binding result,[6],binds
